# Measurements published in patent US8034904B2, “Anti-IGF-I receptor antibody” (Immunogen Inc., priority 2002, dated 2011).
# B1: EM164: murine anti-IGF-I receptor monoclonal antibody, IgG1 with kappa light chain, hybridoma ATCC PTA-4457; heavy SEQ ID NO:7, light SEQ ID NO:8 (antibody)
# heavy: QVQLQQSGAELVKPGASVKLSCKASGYTFTSYWMHWVKQRPGQGLEWIGEINPSNGRTNYNEKFKRKATLTVDKSSSTAYMQLSSLTSEDSAVYYFARGRPDYYGSSKWYFDVWGAGTTVTVSS
# light: DVLMTQTPLSLPVSLGDQASISCRSSQSIVHSNVNTYLEWYLQKPGQSPKLLIYKVSNRFSGVPDRFSGSGSGTDFTLRISRVEAEDLGIYYCFQGSHVPPTFGGGTKLEIKR
# modifications: antibody heavy chain; antibody light chain
# What was measured:
# IGF-I receptor [1] = biological target: T1, IGF-I receptor (Homo sapiens, UniProt P08069); experiment: Downregulation of IGF-I receptor in MCF-7 cells (Western blot); type: cell-based
# T1 construct: human breast cancer MCF-7 cells, which expressed IGF-I receptor; endogenous in cells; host or cells: MCF-7 human breast cancer cells
# Method: Therefore, the inhibition of binding of IGF-I and the displacement of bound IGF-I by EM164 antibody at both 4° C. and 37° C. in these short-term experiments may not be explained by the down-regulation of the receptor due to the binding of the EM164 antibody. The mechanism for the potent inhibition of the binding of IGF-I to IGF-I receptor and for the displacement of the pre-bound IGF-I by EM164 antibody is likely to be competition for binding, either through sharing of the binding site or through steric occlusion or through allosteric effects.
# [2] = test system: truncated IGF-I receptor alpha chain construct (residues 1-468 fused to 704-719, myc tag); experiment: Binding to truncated IGF-I receptor alpha chain construct; design: species or system human
# Text: The binding domain of EM164 antibody was further characterized using a truncated alpha chain construct, which comprised the cysteine rich domain flanked by L1 and L2 domains (residues 1-468) fused with the 16-mer-C-terminus piece (residues 704-719) and which was terminated by a C-terminus epitope tag. This smaller IGF-I receptor, which lacked residues 469-703, has been reported to bind IGF-I, although less tightly compared to the native full-length IGF-I receptor (Molina, L. et al., 2000, FEBS Letters, 467, 226-230; Kristensen, C. et al., 1999, J. Biol. Chem., 274, 37251-37356). Thus, a truncated IGF-I receptor alpha chain construct was prepared comprising residues 1-468 fused to the C-terminus piece that is residues 704-719 and flanked by a C-terminus myc epitope tag. A stable cell line which expressed this construct, and which also expresses the construct transiently in human embryonic kidney 293T cells, was constructed.
# [3] = test system: Human pancreatic cancer BxPC-3 xenografts; experiment: BxPC-3 pancreatic cancer xenograft in SCID/ICR mice; type: in vivo, mouse
# Method: Human pancreatic cancer xenografts were established in 5 week-old, female SCID/ICR mice (Taconic) by subcutaneous injections of 10^7 BxPC-3 cells in PBS (day 0). The mice bearing established tumors of 80 mm^3 were then treated with EM164 alone (13 injections of 0.8 mg/mouse, i.v., lateral tail vein, on days 12, 16, 19, 23, 26, 29, 36, 43, 50, 54, 58, 61 and 64), with gemcitabine alone (two injections of 150 mg/kg/mouse, i.p., on days 12 and 19), with a combination of gemcitabine and. EM164 following the above schedules, PBS alone, and a control antibody alone (following the same schedule as EM164) using five mice in each of the five treatment groups.
# NCI-H838 (lung) cells = experiment: Growth and survival of NCI-H838 cells (MTT assay); type: cell-based, human
# Method: (§1) Several human tumor cell lines were tested in serum-free conditions for their growth and survival response to IGF-I. These cell lines were treated with EM164 antibody in the presence of IGF-I, IGF-II, or serum, and their growth and survival responses were measured using an MTT assay after 2-4 days. Approximately 1500 cells were plated in a 96-well plate in regular medium with serum, which was replaced with serum-free medium the following day (either serum-free RPMI medium supplemented with transferrin and BSA, or phenol-red free medium as specified by Dufourny, B. et al., 1997, J. Biol. Chem., 272, 31163-31171). After one day of growth in serum-free medium, the cells were incubated with about 75 μL of 10 μg/mL antibody for 30 min.-3 h, followed by the addition of 25 μL of IGF-I (or IGF-II or serum) solution to obtain a final concentration of 10 ng/mL IGF-I, or 20 ng/mL IGF-II, or 0.04-10% serum. In some experiments, the cells were stimulated first with IGF-I for 15 min before the addition of EM164 antibody, or both IGF-I and EM164 antibody were added together. The cells were then allowed to grow for another 2-3 days. A solution of MTT (3-(4,5)-dimethylthiazol-2-yl)-2,5-diphenyltetrazolium bromide; 25 μL of a 5 mg/mL solution in PBS) was then added and the cells were returned to the incubator for 2-3 h. The medium was then removed and replaced by 100 μL DMSO, mixed, and the absorbance of the plate was measured at 545 nm.
# IGF-I receptor [4] = biological target: T1, IGF-I receptor; experiment: IGF-I-stimulated autophosphorylation of IGF-I receptor in MCF-7 cells (ELISA); type: cell-based; settings: 20 μg/mL antibody 3 h; 50 ng/mL IGF-I 20 min
# Method: In FIG. 4, the MCF-7 cells were grown in a 12-well plate in regular medium for 3 days, and were then treated with 20 μg/mL EM164 antibody (or anti-B4 control antibody) in serum-free medium for 3 h, followed by stimulation with 50 ng/mL IGF-I for 20 min at 37° C. The cells were then lysed in ice-cold lysis buffer containing protease and phosphatase inhibitors (50 mM HEPES buffer, pH 7.4, 1% NP-40, 1 mM sodium orthovanadate, 100 mM sodium fluoride, 10 mM sodium pyrophosphate, 2.5 mM EDTA, 10 μM leupeptin, 5 μM pepstatin, 1 mM PMSF, 5 mM benzamidine, and 5 μg/mL aprotinin). An ELISA plate was pre-coated with anti-IGF-I receptor beta chain C-terminus monoclonal antibody TC123 and was incubated with the lysate samples for 5 h at ambient temperature to capture IGF-I receptor. The wells containing the captured IGF-I receptor were then washed and incubated with biotinylated anti-phosphotyrosine antibody (PY20; 0.25 μg/mL; BD Transduction Laboratories) for 30 min, followed by washes and incubation with streptavidin-horseradish peroxidase conjugate (0.8 μg/mL) for 30 min. The wells were washed and detected with ABTS/H2O2 substrate.
# [5] = test system: RD (rhabdomyocarcoma) cells; experiment: Growth and survival of RD cells (MTT assay); type: cell-based, human
# Method: as §1
# [6] = test system: SK-N-SH (neuroblastoma) cells; experiment: Growth and survival of SK-N-SH cells (MTT assay); type: cell-based, human
# Method: as §1
# [7] = 5-10 μg/mL EM164, 10 ng/mL IGF-I
molecule,measurement,setting,value
B1,downregulation of the IGF-I receptor,IGF-I receptor [1]; 4° C. for 2 h (or 37° C. for 30 min),did not result in a significant downregulation
same,downregulation of the IGF-I receptor,IGF-I receptor [1]; 37° C. for 2 h,25%
same,binding to truncated IGF-I receptor alpha chain construct,[2],strong binding
same,day on which measurable tumor regrowth was seen in more than one animal,[3]; BxPC-3 xenografts,43 days
same,total regression of tumor xenografts (animals),"[3]; EM164 0.8 mg/mouse i.v. x13, gemcitabine 150 mg/kg i.p. days 12 and 19, five mice per group",4 of 5
same,mean tumor volumes on day 74 in comparison with the control treatments,"[3]; P=0.029 (EM164) and 0.002 (combination), two-tailed T-test",significantly smaller
same,growth of established BxPC-3 xenografts,"[3]; another study, intraperitoneal injections",inhibited the growth
same,"inhibition of the growth of established BxPC-3 xenografts, intraperitoneal vs intravenous administration","[3]; mouse, in vivo",equivalent inhibition
same,"inhibition of the growth of established BxPC-3 xenografts, murine vs humanized","[3]; mouse, in vivo",equivalent inhibition
same,% Inhibition by EM164 antibody of Growth/survival of cells in 1.25-10% serum,"NCI-H838 (lung) cells; NCI-H838 (lung), 5-10 μg/mL EM164",85-90%
same,Inhibition by EM164 antibody of IGF-I-stimulated growth in serum-free medium,"NCI-H838 (lung) cells; NCI-H838 (lung), 5-10 μg/mL EM164, 10 ng/mL IGF-I",100%
same,inhibition of serum-stimulated growth,NCI-H838 (lung) cells; NCI-H838 cells,greater than 80%
same,IGF-1- and serum-stimulated growth and survival of NCI-H838,"NCI-H838 (lung) cells; compared to a control anti-B4 antibody, FIG. 9",strongly inhibited
same,inhibition of the IGF-I stimulated autophosphorylation of IGF-I receptor,IGF-I receptor [4],complete inhibition
same,Inhibition by EM164 antibody of IGF-I-stimulated growth in serum-free medium,[5]; [7],85-100%
same,% Inhibition by EM164 antibody of Growth/survival of cells in 1.25-10% serum,"[5]; 5-10 μg/mL EM164, MTT or colony formation assay",Yes
same,% Inhibition by EM164 antibody of Growth/survival of cells in 1.25-10% serum,[6]; 5-10 μg/mL EM164,30-50%
same,Inhibition by EM164 antibody of IGF-I-stimulated growth in serum-free medium,[6]; [7],85%
